{"source": "patent US20180346588A1", "key": {"[1]": {"target": "human mesothelin (MSLN) on the cell surface (human) (UniProt Q13421)", "sequence (Q13421 other isoform, or with tags, fused parts or gaps limits assumed)": "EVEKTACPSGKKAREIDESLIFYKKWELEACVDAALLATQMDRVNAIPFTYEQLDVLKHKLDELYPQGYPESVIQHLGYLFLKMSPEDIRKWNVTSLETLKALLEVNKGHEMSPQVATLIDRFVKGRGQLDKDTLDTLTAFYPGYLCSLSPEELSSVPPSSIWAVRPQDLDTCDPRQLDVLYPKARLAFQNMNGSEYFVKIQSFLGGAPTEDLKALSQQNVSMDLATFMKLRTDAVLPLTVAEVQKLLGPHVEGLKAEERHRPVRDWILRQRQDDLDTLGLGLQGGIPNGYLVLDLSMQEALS", "assay": "FACS on MiaPaCa-MSLN #2 cells, upper histogram and table"}, "[2]": {"target": "human mesothelin (MSLN) on the cell surface (human) (UniProt Q13421)", "assay": "FACS on MSLN stable cell line (#2), right panels; sheet note: 1st Ab 0.36 µg (2nd assay), 2nd Ab anti-human Fc antibody FITC"}, "[3]": {"target": "human mesothelin (MSLN) on the cell surface (human) (UniProt Q13421)", "assay": "FACS on MSLN stable cell line (#2), left panels; sheet note: 1st Ab 1 µg (1st assay), 2nd Ab anti-human Fc antibody FITC"}, "[4]": {"target": "human mesothelin (MSLN) on the cell surface (human) (UniProt Q13421)", "assay": "FACS on MSLN stable cell line (#2), left panels; negative control; sheet note: 1st Ab 1 µg (1st assay), 2nd Ab anti-human Fc antibody FITC"}, "[5]": {"target": "human mesothelin (MSLN) on the cell surface (human) (UniProt Q13421)", "assay": "FACS on MSLN stable cell line (#2), right panels; negative control; sheet note: 1st Ab 0.36 µg (2nd assay), 2nd Ab anti-human Fc antibody FITC"}, "[6]": {"target": "human mesothelin (MSLN) on the cell surface (human) (UniProt Q13421)", "assay": "FACS on MiaPaCa-MSLN #2 cells, upper histogram and table; negative control"}}}
{"substance": "Morab (antibody)", "values": [{"measurement": "Mean, FL2-H", "setting": "[1]", "value": 3190}, {"measurement": "Mean, FL1-H", "setting": "[2]", "value": 263}, {"measurement": "Mean, FL1-H", "setting": "[3]", "value": 515}]}
{"substance": "hIgG (antibody)", "values": [{"measurement": "Mean, FL1-H", "setting": "[4]", "value": 3.36}, {"measurement": "Mean, FL1-H", "setting": "[5]", "value": 4.81}, {"measurement": "Mean, FL2-H", "setting": "[6]", "value": 8.6}]}
